The nature of the series: soluble on expression in E. coli; label from the status in PepcDB or PDB records.
With “GPNANPIPEHFFAPYIDMSLSVHKPLVEYAKLTGTKYFTLAFILYSSVYNGPAWAGSIPLEKFVDEVRELREIGGEVIIAFGGAVGPYLCQQASTPEQLAEWYIKVIDTYNATYLDFDIAAGIDADKLADALLIVQRERPWVKFSFTLPSDPGIGLAGGYGIIETMAKKGVRVDRVNPMTMDYYWTPSNAENAIKVAENVFRQLKQIYPEKSDEEIWKMIGLTPMIGVNDDKSVFTLEDAQQLVDWAIQHKIGSLAFWSVDRDHPGPTGEVSPLHRGTNDPDWAFSHVFVKFMEAFGYTFSAQTSEASVPT”, the “soluble on expression in E. coli” value is given as “soluble”.

For “GAMGNNLVETTCKNTPNYQLCLKTLLSDKRSATGDITTLALIMVDAIKAKANQAAVTISKLRHSNPPAAWKGPLKNCAFSYKVILTASLPEAIEALTKGDPKFAEDGMVGSSGDAQECEEYFKGSKSPFSALNIAVHELSDVGRAIVRNLL”, the “soluble on expression in E. coli” value is listed as “soluble”.

Take “MLPLSSVELTDIKTDDLDIKWDNVQQFKLGDGSYADVFHVFYKGHDAVLKRSIKEYTDKERENIRREARVVAALNNCENVVRIYGICETLPFRGMIMEYCAGPNLSELVFQLDECKVKFETLRIFKWCHDLTRTLCELNVTYYHGDVKAKNVLVKERPCCCVEGIYENVKIRNTTYSLCTICNGVHLEHLSLKICDFGMSYEHKDKRLYNGGTREFSAPETIRGIYTEKSEVYSFGHLMLVLVIGGPTEDDCAVGQRAFLKMYNNKKYDMSGCKSNSICETIEWCLNNTQESRPTFKQLLSKLNSRHTHYLSLRGTDTRRLEANNEREEFLDHYRIPRKISVHRRTTTTSTCISLSETSGSNQDISVTSAAYLGGPIVNQMFIADTPLASPSASRKFRNDGFEKTNYVENQLYTGDETRKPFLTGGISHPGYSVMRKNSVWKFFVQARNSIRSKITKLVRKRK”: the “soluble on expression in E. coli” value is “not soluble”.

With “MGSDKIHHHHHHEVRSTFINFFREKKEHTYVHSSSVIPHDDPTLLFANAGMNQFKPLFLGIADPNSDLAKLKRAVNTQKCIRAGGKHNDLDDVGKDVYHHTYFEMLGNWSFGDYFKKEIITWAWELLTTVYGIPAERLYVSVFGGDEANGVPADSEARDIWRSVGVPDERILNFGMKDNFWEMGDVGPCGPCSEIHYDRIGNRDASHLVNADDPMVVEIWNLVFIQFNREEGGVLKPLPAKHIDCGLGLERLIAVMQDKTSNYDTDIFQPIFEAIHKGSGVRAYTGFIGDEDKDGVDMAYRVVADHVRTLTIALSDGGRPDNSGRGYVLRRILRRGVRYASEKLNAQPGFFASLVPVVISILGETFPELSRDPVTVMDIINDEEKQFLKTLSRGRVLFQRAVQSLPEGTMTFPGDVSWRLYDTYGFPADLTQLMAEEKGLSVDNTAFEEARRKAIETSSAGTGKFRDTLDLDVHALAELQQKGVPTTDDSPKYAYTFTGEGSDAVYKFEPCVGKILAIRRDGKFVDQLAAGEEGAILLDRTNFYAEQGGQIYDVGVLTKVNDESNEFNVSNCQVRGGYIVLVGSAEGSFSVGDQVNERFDEDRKQLIMKNHTGTHVLNYALRKVLADSDQKGSLVAPDRMRFDFTNKAGMTVQQVKKAEEYAQQLIDTKGQVYAKNSPLGEAKKVKGLRAMFDETYPDPVRVVAVGTPVEQLLQNPDAEEGQNTTVEFCGGTHLQNVSHIGRIVIASEEAIAKGIRRIVALTGPEAER”, the “soluble on expression in E. coli” value was “not soluble”.

In the case of “APLKLYGMPLSPNVVRVATVLNEKGLDFEIVPVDLTTGAHKQPDFLALNPFGQIPALVDGDEVLFESRAINRYIASKYASEGTDLLPATASAAKLEVWLEVESHHFYPNASPLVFQLLVRPLLGGAPDAAVVDKHAEQLAKVLDVYEAHLARNKYLAGDEFTLADANHASYLLYLSKTPKAGLVAARPHVKAWWEAIVARPAFQKTVAAIPLPPPP”, the “soluble on expression in E. coli” value is “soluble”.

Take “MKEYIAFDIGGTQIKYGIVSEIGRVLKRQTVATEIHLGGEQIIQKLIYVSKKIMNEHTITGIGISTAGIVDINKGIVTGGADHIPGYSTIPIIDRLQEILKVPVSIDNDVNCAAFGEKWNGSGREKDNFIMLTLGTGIGGAIFIDGKLYRGHSFSAGEWGNMLIEEKTFEEVASISGLIRLVSKYKGKGKWNGKRIFELYDKGDREVAQAVGIFFKHLAIGISNLAYIFNPETIIIGGGITDRGNEFLKEVKEEVSKYLNQEIYNNCEIELAQNGNCAGMIGAIYHFLHHHK”: the “soluble on expression in E. coli” value is recorded as “not soluble”.

With “MEARTTDLSDLYPEGEALPMVFKSFGGRARFAGRVRTLRVFEDNALVRKVLEEEGAGQVLFVDGGGSLRTALLGGNLARRAWEKGWAGVVVHGAVRDTEELREVPIGLLALAATPKKSAKEGKGEVDVPLKVLGVEVLPGSFLLADEDGLLLLPEPPSGVRSGG”, the “soluble on expression in E. coli” value is given as “soluble”.

For “MKESLKDRIRLWKRLYVNAFENALNAIPNVKGVLLAYNTNIDAIKYLDADDLEKRVTEKGKEKVFEIIENPPEKISSIEELLGGILRSIKLGKAMEWFVESEEVRRYLREWGWDELRIGGQAGIMANLLGGVYRIPTIVHVPQNPKLQAELFVDGPIYVPVFEGNKLKLVHPKDAIAEEEELIHYIYEFPRGFQVFDVQAPRENRFIANADDYNARVYMRREFREGFEEITRNVELAIISGLQVLKEYYPDGTTYKDVLDRVESHLNILNRYNVKSHFEFAYTANRRVREALVELLPKFTSVGLNEVELASIMEIIGDEELAKEVLEGHIFSVIDAMNVLMDETGIERIHFHTYGYYLALTQYRGEEVRDALLFASLAAAAKAMKGNLERIEQIRDALSVPTNERAIVLEEELEKEFTEFENGLIDMVDRQLAFVPTKIVASPKSTVGIGDTISSSAFVSEFGMRKR”, the “soluble on expression in E. coli” value is reported as “soluble”.

For “MGHHHHHHSHMANSAGSMANSAGSPGSLFRFAVPPALGSNLTDNVMITVDIIPSGWNSADGKSDKTKSAPSRDPERLQKIKESLLLEDSEEEEGDLCRICQMAAASSSNLLIEPCKCTGSLQYVHQDCMKKWLQAKINSGSSLEAVTTCELCKEKLELNLEDFDIHELHRAHANEQAEYEFISSGLYLVVLLHLCEQSFSDMMGNTNEPSTRVRFINLARTLQAHMEDLETSEDDSEEDGDHNRTFDIA”, the “soluble on expression in E. coli” value was “soluble”.

As to “MRKMMPMNPKQLKKLMKQLDMRQLEGVKEVIIKMEDREIIIKEPIVTVIKAMGEKMYQIAGGSEEEKAIINISEEDIKLVMEQAGVDYETAKKALEETGGDLAEAILRLTDSGVE”, the “soluble on expression in E. coli” value is recorded as “soluble”.

“MRDNASLAHTQWNCKYHIVFAPKYRRQVIYGKIKKDIGQILRKLCEMKGVEIIEASLCPDHIHMLVSIPPKISVSSFMGYLKGKSSLMIFNRHANLKYKYGNRHFWCRGYYVDTVGRNRKAIEQYIRRQLQEDIASDQISLNEYIDPFTGERVNKSKK”: the “soluble on expression in E. coli” value was “not soluble”.

As for “METKILYQKVSADLKRRILDGDYEVGGLIPSEGELERYYQVSKITIRKAVEVLVSEGYLEKKSGIGTRVISNDLFNKLTQTQSFTATVGQQGKLTKELIKIERVPAVPALLPSESQGTMLRIKRRYLLDGKPFAVVDHYLPNTLVPTKLTALRHRSLYKILQENGQTITHFQDKFSAVTLADSERALLESQTPLAIRRERKGYDGHQRLVEFSIATYQTDVVPYQINYDVL”, the “soluble on expression in E. coli” value is “not soluble”.

For the sequence “MGSDKIHHHHHHMAATPRKLSSKEVAALVGNLMEASESTSLENGLEVRPYAFGENELNQLGDYHALRIINERFCRTARDVFLPMLRLQPRISSFPPEVRSFDDYRSSQDNFVSITASRIEELRGNQMIVIPPPFISLLTDSYYGGQIRHVPTTRTEFTATEERVIELVTDRLNVALQVAWRDLMALTFTVVSREESMQFASFVDGEDMVVNCSFMVQLPNTEPASFDILYPLQTLKPISSQLRSRMQSDFVDDDRSWREKLERAILSIPLTLSARLCEPEVPLRQLMQMQPGDVLPVHLTEAVSLLVEGQPIFEAAPGERGGQAALNLTRRHVRS”, the “soluble on expression in E. coli” value is reported as “not soluble”.

For “GYDHKAIGITAKGAWEAVKRHFRESFNHDIQTTPFTCIGVGDMSGDVFGNGMLLSKQTKLIAAFDHRDIFIDPDPNIAESYTERMRLFQLPRSSWQDYDQTKLSKGGGIFSRTEKTITLSPEAAKAIGFAKQTGTPFEIISALLKAPVDLLWFGGIGTYIRATTETDAQVGDRANDALRITGEQVRAKVIGEGANLGVTQRGRIEYVLNGGRCNTDAIDNSAGVNCSDVEVNIKIVLASALRAKTLTRETRNELLKKMTPQVEQLVLRNNYLQTLALSLAESQSAADL”, the “soluble on expression in E. coli” value was “not soluble”.

Source of the values: the DeepSol protein solubility set.
